Measured values published in article doi:10.1101/2025.08.12.669882.

Molecular target: TG (triacylglycerol)
Experiment: TG binding assay with purified proteins, TLC of radiolabeled TG
Conditions: 2.5 mol % TG; parent: est. 1.5; read off a plot

For LDAC (m1 + m2) F57A; S61A; L105A; S109A, the response (relative to MBOAT7) was 1.2.
